Laboratory results as given in the supplement of paper PMC12764529.
± gives the half width of the 95% confidence interval.

Assays:
[1] = folding stability dG unfold from trypsin proteolysis; higher = more stable
In short: (§1)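 K50 was inferred by Bayesian fitting of sequencing counts obtained after protease digestion of designed mini-proteins. Unfolding free energy was derived by comparison with a sequence-predicted unfolded-state K50 and a shared folded-state K50, for each protease or both combined. The mini-proteins were under 80 residues, had no cysteine, were carried in a PA-tagged cDNA display construct, and were kept only if AlphaFold2 dimer inter-PAE exceeded 15.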

[2] = folding stability dG unfold (combined trypsin and chymotrypsin); higher = more stable
In short: as §1

[3] = folding stability dG unfold from chymotrypsin proteolysis; higher = more stable
In short: as §1

Sequence | folding stability dG unfold [1] [kcal/mol] | folding stability dG unfold [2] [kcal/mol] | folding stability dG unfold [3] [kcal/mol]
SAGGSAGGSAMELVVKEVEYRGPLSLSIEEIAEEIEKKEGIKVIELEEYPDEKVKITIEKVSAGGSAGGSAG [r3_66_JUSTAS] | -0.463 ± 0.16 | 0.485 ± 0.19 | 0.764 ± 0.12
SAGGSAGGSAMITIKVSPDVPVPSNTPITLPNGKKVKATVTPVPSPEDGTPVLKITLDPNLISAGGSAGGSA [r18_476_JUSTAS] | -0.934 ± 0.24 | 0.446 ± 0.044 | 0.891 ± 0.023
SAGGSAGGSAMITSDDLEKLLKKLGIDPKKLGPEKLAKIFKELYPDAIITADPEGKAYIYPSAGGSAGGSAG [r3_375_TrMRF] | 1.72 ± 0.07 | 1.2 ± 0.14 | 0.467 ± 0.19
SAGGSAGGSAMIVTEEGNTITITTLTNLTFPTTGATSTATTTTTITLPPTPLFPVPRTDNSLSAGGSAGGSA [r18_501_JUSTAS] | -0.21 ± 0.11 | 0.44 ± 0.24 | 0.819 ± 0.12
SAGGSAGGSAMKIKIEVVKNKNGYYYLKVEIEVNGKKIEITIKVPKNEKVSIEELLKKILKKSAGGSAGGSA [r18_111_TrROS_Hall] | 2.78 ± 0.12 | 4.07 ± 0.16 | 4.55 ± 0.12
SAGGSAGGSAMKKVTITLLDPRNGKEHTVTLPADITEEEAKAAAEAVAAERGWEVLSIEFEPSAGGSAGGSA [r18_322_JUSTAS] | 3.61 ± 0.072 | 3.57 ± 0.071 | 3.43 ± 0.1
SAGGSAGGSAMKLKVPTKDGKVYEVTVVDYDPENEKVVVKNPDTDELYTFSLEDFKKILEANSAGGSAGGSA [r18_161_TrMRF] | 2.72 ± 0.17 | 3.36 ± 0.12 | 3.55 ± 0.08
SAGGSAGGSAMKTIEIDIVIKNKETGEYYKAKAKIFENEDGSLIIEIEFEKNGKTLLIVLPPSAGGSAGGSA [r18_426_TrROS_Hall] | 3.31 ± 0.096 | 3.61 ± 0.2 | 3.82 ± 0.11
SAGGSAGGSAMKTIPVKTKEEAEKLAEELKASGYGEVKKTKSGNIIVKAPDGIDVKIVVPEKSAGGSAGGSA [r18_126_JUSTAS] | 0.098 ± 0.068 | 0.574 ± 0.19 | 0.712 ± 0.072
SAGGSAGGSAMLIVGGADPEGAAEAAEEFIAAIEKAAEELGIPPEHIEIPVLIAEPGEAPGSAGGSAGGSAG [r3_249_TrMRF] | 1.19 ± 0.056 | 0.834 ± 0.12 | 0.289 ± 0.052
SAGGSAGGSAMLRIKIYYKKNGEEYEIEVEGSLEEALKEAAKKLGLSEDEIKKIEIEELPESAGGSAGGSAG [r3_79_TrROS_Hall] | 2.66 ± 0.12 | 3.41 ± 0.2 | 3.73 ± 0.086
SAGGSAGGSAMLRIRFENGLEIEIPKDMTLEELKKLAEELAEELKKEGKEVEVKIVEIEPVPSAGGSAGGSA [r18_213_TrROS_Hall] | 1.65 ± 0.044 | 2.03 ± 0.075 | 2.21 ± 0.029
SAGGSAGGSAMLTKITITFEKPGTDETFTKPIDVPPDNPEEAIKAIKEELKKKGYKVKSVILSAGGSAGGSA [r18_3_JUSTAS] | 1.28 ± 0.078 | 1.57 ± 0.15 | 1.73 ± 0.074
SAGGSAGGSAMLYRITVRNADGEKLEIVVEMSEDEVRALAEELRKAGYEVRVEPIPEGEEPSAGGSAGGSAG [r3_35_TrROS_Hall] | 4.89 ± 0.21 | 4.8 ± 0.15 | 4.79 ± 0.11
SAGGSAGGSAMPKTTVYTIPYESDEEAEARIEEIKAEARARNPEAKVTVTPAGESVNVTIVGSAGGSAGGSA [r18_469_JUSTAS] | -0.7 ± 0.34 | -0.376 ± 0.2 | -0.116 ± 0.19
SAGGSAGGSAMPLTSPEEAARHIKEALERLFPSSFPDRVIDPDVVVFTRPDGRVVALVKLKASAGGSAGGSA [r18_440_TrMRF] | 0.877 ± 0.023 | 1.11 ± 0.068 | 1.27 ± 0.073
SAGGSAGGSAMPVKVKVTVKARFGDKEFELEFEIEVGPGATEEDIKNLVTEKYPGFEEVELESAGGSAGGSA [r18_195_JUSTAS] | 1.92 ± 0.083 | 2.16 ± 0.12 | 2.16 ± 0.11
SAGGSAGGSAMQRDPDGKPQPQVTFRIPADDMPEEQIKKHLPPEFADNFRDNMPEGDTITLSAGGSAGGSAG [r3_326_TrROS] | -0.688 ± 0.19 | -0.239 ± 0.14 | -0.105 ± 0.25
SAGGSAGGSAMTFFVAVVKTETRVLPDGSLETRSSIEVKPVPAIPAEDLIKKLGLPLEDIASAGGSAGGSAG [r3_338_TrMRF] | 2.13 ± 0.041 | 2.61 ± 0.14 | 3.14 ± 0.053
SAGGSAGGSAMTFKSPEEAKKAAEELEKKTGYKIKITKIEVNEDGEKTVKIEILPPGEKLKSAGGSAGGSAG [r3_59_TrROS_Hall] | -0.238 ± 0.092 | 0.284 ± 0.1 | 0.544 ± 0.12
SAGGSAGGSAMTIKVEVTVKVKVKLENGETKEKEVKVTVEIELPPLTKEELEKNKELLKKLLSAGGSAGGSA [r18_114_TrROS_Hall] | 2.42 ± 0.14 | 2.42 ± 0.16 | 2.53 ± 0.08
